One data set concerns the target PTB-GFP (UniProt P26599). As to the kind of experiment: single-molecule TIRF. Particulars: Filter binding: 5 mM Hepes pH 7.4, 100 mM KCl, 3 mM MgCl2, 5% glycerol, 75 ug/ml yeast tRNA, 75 ug/ml BSA, 0.5 mM DTT, room temp, probing: 20 mM HEPES-KOH pH 7.
Data set [1] concerns PTB1 C4 C250S;C251S;E518C;del1-55, P26599-1. As to the kind of experiment: filter binding. Particulars: Filter binding: 5 mM Hepes pH 7.4, 100 mM KCl, 3 mM MgCl2, 5% glycerol, 75 ug/ml yeast tRNA, 75 ug/ml BSA, 0.5 mM DTT, room temp; probing: 20 mM HEPES-KOH pH 7.
For data set [2], the system named is PTB1 C1C2 C250S;C251S;Q124C;D284C;del1-55, P26599-1. Kind of data set: filter binding. Particulars: Filter binding: 5 mM Hepes pH 7.4, 100 mM KCl, 3 mM MgCl2, 5% glycerol, 75 ug/ml yeast tRNA, 75 ug/ml BSA, 0.5 mM DTT, room temp; probing: 20 mM HEPES-KOH pH 7.
Data set [3] has as its system PTB1 C4m C250S;C251S;E518C;del1-55, P26599-1. Kind of data set: filter binding. Particulars: Filter binding: 5 mM Hepes pH 7.4, 100 mM KCl, 3 mM MgCl2, 5% glycerol, 75 ug/ml yeast tRNA, 75 ug/ml BSA, 0.5 mM DTT, room temp; probing: 20 mM HEPES-KOH pH 7.
Data set [4] relates to PTB1 C1mC2 C250S;C251S;Q124C;D284C;del1-55, P26599-1. Kind of data set: filter binding. Particulars: Filter binding: 5 mM Hepes pH 7.4, 100 mM KCl, 3 mM MgCl2, 5% glycerol, 75 ug/ml yeast tRNA, 75 ug/ml BSA, 0.5 mM DTT, room temp; probing: 20 mM HEPES-KOH pH 7.
The test system of data set [5] is PTB1 C3mC4 C250S;C251S;E518C;del1-55, P26599-1. Kind of data set: filter binding. Particulars: Filter binding: 5 mM Hepes pH 7.4, 100 mM KCl, 3 mM MgCl2, 5% glycerol, 75 ug/ml yeast tRNA, 75 ug/ml BSA, 0.5 mM DTT, room temp; probing: 20 mM HEPES-KOH pH 7.
Data set [6] relates to PTB1 C3mC4m C250S;C251S;E518C;del1-55, P26599-1. Kind of data set: filter binding. Particulars: Filter binding: 5 mM Hepes pH 7.4, 100 mM KCl, 3 mM MgCl2, 5% glycerol, 75 ug/ml yeast tRNA, 75 ug/ml BSA, 0.5 mM DTT, room temp; probing: 20 mM HEPES-KOH pH 7.
Data set [7] concerns PTB1 C1mC2m C250S;C251S;Q124C;D284C;I214S;F216A;K218S;del1-55, P26599-1. Kind of data set: filter binding. Particulars: Filter binding: 5 mM Hepes pH 7.4, 100 mM KCl, 3 mM MgCl2, 5% glycerol, 75 ug/ml yeast tRNA, 75 ug/ml BSA, 0.5 mM DTT, room temp; probing: 20 mM HEPES-KOH pH 7.
Data set [8] has as its system PTB1 C4pack C250S;C251S;E518C;E502K;V505E;I509K;del1-55, P26599-1. Kind of data set: filter binding. Particulars: Filter binding: 5 mM Hepes pH 7.4, 100 mM KCl, 3 mM MgCl2, 5% glycerol, 75 ug/ml yeast tRNA, 75 ug/ml BSA, 0.5 mM DTT, room temp; probing: 20 mM HEPES-KOH pH 7.
Data set [9] concerns PTB1 LmC4 C250S;C251S;E518C;K439A;K440A;del1-55, P26599-1. As to the kind of experiment: filter binding. Particulars: Filter binding: 5 mM Hepes pH 7.4, 100 mM KCl, 3 mM MgCl2, 5% glycerol, 75 ug/ml yeast tRNA, 75 ug/ml BSA, 0.5 mM DTT, room temp; probing: 20 mM HEPES-KOH pH 7.
The subject of data set [10] is PTB1 C3C4 C250S;C251S;E518C;del1-55, P26599-1. Kind of data set: filter binding. Particulars: Filter binding: 5 mM Hepes pH 7.4, 100 mM KCl, 3 mM MgCl2, 5% glycerol, 75 ug/ml yeast tRNA, 75 ug/ml BSA, 0.5 mM DTT, room temp; probing: 20 mM HEPES-KOH pH 7.
In data set [11] the test system is PTB1 C1C2m C250S;C251S;Q124C;D284C;I214S;F216A;K218S;del1-55, P26599-1. As to the kind of experiment: filter binding. Particulars: Filter binding: 5 mM Hepes pH 7.4, 100 mM KCl, 3 mM MgCl2, 5% glycerol, 75 ug/ml yeast tRNA, 75 ug/ml BSA, 0.5 mM DTT, room temp; probing: 20 mM HEPES-KOH pH 7.
Data set [12] deals with PTB1 C3C4m C250S;C251S;E518C;del1-55, P26599-1. Kind of data set: filter binding. Particulars: Filter binding: 5 mM Hepes pH 7.4, 100 mM KCl, 3 mM MgCl2, 5% glycerol, 75 ug/ml yeast tRNA, 75 ug/ml BSA, 0.5 mM DTT, room temp; probing: 20 mM HEPES-KOH pH 7.

pKd: −log10 of the molar value.

PTB-GFP, sequence (P26599 whole entry): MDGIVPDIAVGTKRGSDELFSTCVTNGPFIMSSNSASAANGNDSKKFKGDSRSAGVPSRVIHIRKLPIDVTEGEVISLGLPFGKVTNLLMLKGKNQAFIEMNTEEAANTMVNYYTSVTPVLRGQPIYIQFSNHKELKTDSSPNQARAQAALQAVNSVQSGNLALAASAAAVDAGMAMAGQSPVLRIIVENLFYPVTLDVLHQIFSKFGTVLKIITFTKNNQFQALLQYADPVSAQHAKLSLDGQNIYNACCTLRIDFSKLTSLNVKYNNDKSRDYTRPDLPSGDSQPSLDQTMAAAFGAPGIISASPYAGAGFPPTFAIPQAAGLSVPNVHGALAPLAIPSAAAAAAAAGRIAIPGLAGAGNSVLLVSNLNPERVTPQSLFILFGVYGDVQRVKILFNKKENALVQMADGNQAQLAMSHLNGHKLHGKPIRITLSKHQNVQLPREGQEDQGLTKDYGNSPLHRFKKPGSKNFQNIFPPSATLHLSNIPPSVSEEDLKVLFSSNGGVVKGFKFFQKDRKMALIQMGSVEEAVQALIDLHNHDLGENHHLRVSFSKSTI
PTB1 C4 C250S;C251S;E518C;del1-55, P26599-1, sequence (P26599 other isoform, or with tags, fused parts or gaps C250S C251S E518C): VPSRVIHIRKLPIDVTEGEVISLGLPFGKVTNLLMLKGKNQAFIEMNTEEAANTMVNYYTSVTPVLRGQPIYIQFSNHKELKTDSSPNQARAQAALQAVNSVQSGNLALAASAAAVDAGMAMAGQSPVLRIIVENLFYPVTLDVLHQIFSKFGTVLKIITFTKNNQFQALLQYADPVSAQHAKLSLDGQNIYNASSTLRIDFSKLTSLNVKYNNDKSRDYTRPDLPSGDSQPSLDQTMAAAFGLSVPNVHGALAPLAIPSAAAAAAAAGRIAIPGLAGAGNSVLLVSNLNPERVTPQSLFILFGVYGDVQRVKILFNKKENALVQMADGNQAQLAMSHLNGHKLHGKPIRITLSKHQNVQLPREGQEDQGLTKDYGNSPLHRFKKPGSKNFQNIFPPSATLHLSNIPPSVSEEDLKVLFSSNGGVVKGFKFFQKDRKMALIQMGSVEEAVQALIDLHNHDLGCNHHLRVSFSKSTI
PTB1 LmC4 C250S;C251S;E518C;K439A;K440A;del1-55, P26599-1, sequence (P26599 other isoform, or with tags, fused parts or gaps C250S C251S E518C K439A K440A): as the sequence (P26599 other isoform, or with tags, fused parts or gaps C250S C251S E518C) above, with K384A, K385A counted along it
PTB1 C1C2 C250S;C251S;Q124C;D284C;del1-55, P26599-1, sequence (P26599 other isoform, or with tags, fused parts or gaps C250S C251S Q124C D284C): as the sequence (P26599 other isoform, or with tags, fused parts or gaps C250S C251S E518C) above, with Q69C, D229C, C463E counted along it
PTB1 C1mC2 C250S;C251S;Q124C;D284C;del1-55, P26599-1, sequence (P26599 other isoform, or with tags, fused parts or gaps C250S C251S Q124C D284C): as the sequence (P26599 other isoform, or with tags, fused parts or gaps C250S C251S E518C) above, with Q69C, D229C, C463E counted along it
PTB1 C1mC2m C250S;C251S;Q124C;D284C;I214S;F216A;K218S;del1-55, P26599-1, sequence (P26599 other isoform, or with tags, fused parts or gaps C250S C251S Q124C D284C I214S F216A K218S): as the sequence (P26599 other isoform, or with tags, fused parts or gaps C250S C251S E518C) above, with Q69C, I159S, F161A, K163S, D229C, C463E counted along it
PTB1 C1C2m C250S;C251S;Q124C;D284C;I214S;F216A;K218S;del1-55, P26599-1, sequence (P26599 other isoform, or with tags, fused parts or gaps C250S C251S Q124C D284C I214S F216A K218S): as the sequence (P26599 other isoform, or with tags, fused parts or gaps C250S C251S E518C) above, with Q69C, I159S, F161A, K163S, D229C, C463E counted along it
PTB1 C4pack C250S;C251S;E518C;E502K;V505E;I509K;del1-55, P26599-1, sequence (P26599 other isoform, or with tags, fused parts or gaps C250S C251S E518C E502K V505E I509K): as the sequence (P26599 other isoform, or with tags, fused parts or gaps C250S C251S E518C) above, with E447K, V450E, I454K counted along it
PTB1 C3C4m C250S;C251S;E518C;del1-55, P26599-1, sequence (P26599 other isoform, or with tags, fused parts or gaps C250S C251S E518C): as the sequence (P26599 other isoform, or with tags, fused parts or gaps C250S C251S E518C) above
PTB1 C3mC4m C250S;C251S;E518C;del1-55, P26599-1, sequence (P26599 other isoform, or with tags, fused parts or gaps C250S C251S E518C): as above
PTB1 C3mC4 C250S;C251S;E518C;del1-55, P26599-1, sequence (P26599 other isoform, or with tags, fused parts or gaps C250S C251S E518C): as above
PTB1 C3C4 C250S;C251S;E518C;del1-55, P26599-1, sequence (P26599 other isoform, or with tags, fused parts or gaps C250S C251S E518C): as above
PTB1 C4m C250S;C251S;E518C;del1-55, P26599-1, sequence (P26599 other isoform, or with tags, fused parts or gaps C250S C251S E518C): as above

For “AUGUGAACAUGGAAUCAUCAAGGAAUGCACACUCACCAGCAACACCAAGUGCAAAGAGGAAGGUAAUUAUUUUUUUACGGUUAUAUUCUCCUUUCCCCCAACCCCAUGGAAAGAUGUGAAGAAAAACCAAUCACUCUUGAUUACUAGAAAGUCCUUUAUUUAAUCUUAAAGAUUGCUUAUUUUCAUAUAAAAUGUCCAAUGUUCCAACCUACAGGAUCCAGAUCUAACUUGGGGUGGCAAUGCACACUCACCAGGCCAAUUCCACUAAUUGUUUGGGGUAAGUUCUUGCUUUGUUCAAACUGCAGAUUGAAAUAACUUGGGAAGUAGGUGUGAAAGUAUGUUCUCACAUGCAUUCUACAAGGCUGAGACCUGAGUUGAUAAAAUUUCUUUGUUCUUUCAGUGAAGAGAAAGGAAGUACAGAAAACAUGCAGAAAGCACAGAAAGGAA [FAS m0 mutant RNA]”, the binding signal (% RNA with bound PTB-GFP) in the data set with PTB-GFP was 2.9. Also, the pKd – broadly, −log10 of the Kd, conventionally taken in molar units – in data set [1] is 8.12.
Tpm1 RNA came in with a binding signal (% RNA with bound PTB-GFP) with PTB-GFP of 7.9.
In the case of “AUGUGAACAUGGAAUCAUCAAGGAAUGCACACUCACCAGCAACACCAAGUGCAAAGAGGAAGGUAAUUAUUUUUUUACGGUUAUAUUCUCCUUUCCCCCAACCCCAUGGAAAGAUGUGAAGAAAAACCAAUCACUCUUGAUUACUAGAAAGUCCUUUAUUUAAUCUUAAAGAUUGCUUAUUUUCAUAUAAAAUGUCCAAUGUUCCAACCUACAGGAUCCAGAUCUAACUUGGGGUGGCUUUGUCUUCUUCUUUUGCCAAUUCCACUAAUUGUUUGGGGUAAGUUCUUGCUUUGUUCAAACUGCAGAUUGAAAUAACUUGGGAAGUAGGUGUGAAAGUAUGUUCUCACAUGCAUUCUACAAGGCUGAGACCUGAGUUGAUAAAAUUUCUUUGUUCUUUCAGUGAAGAGAAAGGAAGUACAGAAAACAUGCAGAAAGCACAGAAAGGAA [FAS WT RNA (exon 5-6-7)]”, the pKd is 7.70 in the data set with PTB-GFP (average Kd, 3-4 PTB sites, 2.6% of RNA with bound PTB-GFP, nuclear extract); 8.00 in data set [2]; 7.52 in data set [3]; 7.94 in data set [4]; 7.78 in [5]; 7.61 in data set [6]. The pKd is 7.91 in data set [7]; 8.20 in data set [8]; 7.85 in data set [9]; 7.83 in data set [10]; 7.82 in data set [11]; 7.64 in data set [12]. Further, the pKd in data set [1] is 7.99.
